{"source": "paper PMC8501954", "target": "tRip1-402 (Plasmodium falciparum) (UniProt Q8IL48)", "assay": "competition EMSA", "conditions": "unmodified transcript; scale: fold difference from Sc tRNAPheGAA"}
{"substance": "minihelixPhe", "values": [{"measurement": "binding signal", "result": "< 2"}]}
